# Source: the supplement of paper PMC6755084
# B1: F1*; the commonest letter at each place (parent)
# chain: GAGACCGCAACTGAAAAGTTGTTATCACTTGTCGTAAGACACTTTGGATGGGTTGAAGTTCTGCACGTAGAAGCAAAAGGC
# Variants of: B1
# Assay: fraction ligated after 30 min (ligated reads / total reads); higher = more ligase activity
# Conditions: with F1*sub RNA substrate (template-directed ligation), 42 °C
# In short: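 The ligase ribozyme variants were produced by PCR amplification of oligo-pool templates, T7 transcription and purification on gel. Their ligated and unligated forms were gel-separated, then reverse transcribed with barcoded primers before MiSeq sequencing. Core bases were filtered at a quality of ≥20, and fraction ligated per variant was ligated reads over total reads.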
row,Variant,fraction ligated
1,T49C,0.731
2,T49G,0.778
3,T49A,0.777
4,T45G G46C,0.0668
5,T45G G46A,0.032
6,T45G G46T,0.246
7,G51T,0.792
8,G51A,0.797
9,G51C,0.812
10,G47T A48C,0.0847
11,G47T A48T,0.283
12,G47T A48G,0.183
13,T49G G55C,0.136
14,T49G G55T,0.243
15,T49G G55A,0.688
16,G55A,0.822
17,G46A G47T,0.115
18,G46A G47A,0.804
19,G46A G47C,0.146
20,T45G A48G,0.0747
21,T45G A48T,0.187
22,T45G A48C,0.122
23,G52T,0.695
24,G52C,0.726

row,Variant,fraction ligated
1,G52A,0.827
2,G46A A56G,0.487
3,G46A A56T,0.645
4,G46A A56C,0.483
5,G50A A57T,0.216
6,G50A A57G,0.251
7,G50A A57C,0.0747
8,T49G A56C,0.109
9,T49G A56T,0.191
10,T49G A56G,0.0888
11,A48G A57C,0.792
12,A48G A57G,0.803
13,A48G A57T,0.795
14,A48C A56G,0.283
15,A48C A56T,0.289
16,A48C A56C,0.185
17,G46T A57C,0.726
18,G46T A57T,0.754
19,G46T A57G,0.795
20,G47A G55T,0.221
21,G47A G55A,0.775
22,G47A G55C,0.422
23,T49C G55C,0.0675
24,T49C G55A,0.335

row,Variant,fraction ligated
1,T49C G55T,0.091
2,T54G,0.807
3,T54C,0.846
4,T54A,0.828
5,T45G A56C,0.187
6,T45G A56G,0.775
7,T45G A56T,0.79
8,G47C A57T,0.0788
9,G47C A57G,0.0599
10,G47C A57C,0.0685
11,T45A G47C,0.217
12,T45A G47A,0.478
13,T45A G47T,0.205
14,G46T A56G,0.187
15,G46T A56T,0.237
16,G46T A56C,0.136
17,A48G G55A,0.787
18,A48G G55T,0.686
19,A48G G55C,0.108
20,G46A G50C,0.0754
21,G46A G50A,0.0565
22,G46A G50T,0.232
23,T45A T49A,0.0341
24,T45A T49G,0.0993

row,Variant,fraction ligated
1,T45A T49C,0.0557
2,G47A A56C,0.125
3,G47A A56T,0.181
4,G47A A56G,0.098
5,T49A G55A,0.62
6,T49A G55C,0.129
7,T49A G55T,0.24
8,G55A A56T A57G,0.143
9,G55A A56T A57C,0.0139
10,G55A A56T A57T,0.161
11,T49A G50A,0.281
12,T49A G50T,0.769
13,T49A G50C,0.502
14,T45A A56T,0.793
15,G46C G55C,0.171
16,G46C G55T,0.674
17,G46C G55A,0.804
18,G46A A57G,0.799
19,G46A A57T,0.803
20,G46A A57C,0.793
21,G47T A57T,0.0782
22,G47T A57G,0.101
23,G47T A57C,0.0653
24,G47C A56C,0.0635

row,Variant,fraction ligated
1,G47C A56G,0.0569
2,G47C A56T,0.0769
3,A48C A57T,0.719
4,A48C A57G,0.762
5,A48C A57C,0.714
6,G47T G55T,0.0451
7,G47T G55C,0.0359
8,G47T G55A,0.0777
9,A48C G55T,0.5
10,A48C G55C,0.16
11,A48C G55A,0.743
12,T45A G55C,0.067
13,T45A G55T,0.144
14,T45A G55A,0.274
15,G55A A56G,0.821
16,G55A A56C,0.729
17,G55A A56T,0.8
18,T49A A57T,0.724
19,T49A A57G,0.792
20,T49A A57C,0.629
21,G46C G47T,0.0897
22,G46C G47A,0.798
23,G46C G47C,0.0992
24,T45C A56T,0.473

row,Variant,fraction ligated
1,T45C A56G,0.569
2,T45C A56C,0.747
3,T45G T49A,0.0341
4,T45G T49G,0.0893
5,T45G T49C,0.0508
6,T49G A57T,0.706
7,T49G A57C,0.523
8,T49G A57G,0.734
9,G50C A56G,0.0166
10,G50C A56T,0.0147
11,G50C A56C,0.00754
12,T45A G50T,0.0542
13,T45A G50A,0.0303
14,T45A G50C,0.0158
15,T45C A48C,0.112
16,T45C A48G,0.0929
17,T45C A48T,0.00623
18,T45G G50T,0.0316
19,T45G G50A,0.0135
20,T45G G50C,0.0186
21,G50A G55A,0.178
22,G50A G55C,0.0427
23,G50A G55T,0.0307
24,G46C T49C,0.0853

row,Variant,fraction ligated
1,G46C T49G,0.407
2,G46C T49A,0.344
3,G46A A48T,0.0714
4,G46A A48C,0.675
5,G46A A48G,0.609
6,G47T,0.37
7,G47A,0.788
8,G47C,0.236
9,G46C A57C,0.778
10,G46C A57T,0.76
11,G46C A57G,0.712
12,G55A A56C A57G,0.0754
13,G55A A56C A57C,0.0438
14,G55A A56C A57T,0.151
15,G50T G55C,0.143
16,G50T G55T,0.123
17,G50T G55A,0.455
18,G50T,0.743
19,G50C,0.424
20,G50A,0.589
21,G46T G47T,0.0382
22,G46T G47C,0.0107
23,G46T G47A,0.769
